{"source": "paper PMC4734682", "about": "“Evidence for the Nucleo-Apical Shuttling of a Beta-Catenin Like Plasmodium falciparum Armadillo Repeat Containing Protein” (PLoS ONE, 2016)", "key": {"[1]": {"target": "T1, rPfARO (Plasmodium falciparum 3D7) (UniProt C0H4A5)", "T1 sequence": "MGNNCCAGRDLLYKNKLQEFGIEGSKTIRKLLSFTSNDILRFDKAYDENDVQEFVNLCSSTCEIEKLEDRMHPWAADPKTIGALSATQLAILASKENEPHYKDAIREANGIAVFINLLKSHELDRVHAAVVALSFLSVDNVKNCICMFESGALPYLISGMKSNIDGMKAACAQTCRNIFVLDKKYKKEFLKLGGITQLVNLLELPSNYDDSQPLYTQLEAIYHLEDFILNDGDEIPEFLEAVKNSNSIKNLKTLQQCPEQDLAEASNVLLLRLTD", "test": "EMSA", "conditions": "EMSA: 10 mM Tris-Cl pH 7.5, 100 mM KCl, 5 mM MgCl2, 2 mM DTT, 6% glycerol, 50 ug/ml BSA, 25 ul; temperature not stated"}, "[2]": {"target": "T1, rPfARO (Plasmodium falciparum 3D7)", "test": "competition", "conditions": "EMSA: 10 mM Tris-Cl pH 7.5, 100 mM KCl, 5 mM MgCl2, 2 mM DTT, 6% glycerol, 50 ug/ml BSA, 25 ul; temperature not stated"}, "[3]": {"target": "the molecule itself", "test": "non-reducing SDS-PAGE; purified rPfARO run under non-reducing conditions, stained gel and anti-His immunoblot; ~60 kDa dimer band beside the ~32 kDa monomer; dimer band diminished progressively with increasing DTT; both bands confirmed as PfARO by LC-MS"}, "[4]": {"target": "the molecule itself", "test": "non-reducing SDS-PAGE; immunoblot of parasite lysate under non-reducing conditions with anti-PfARO antibodies; ~60 kDa dimer beside the ~32 kDa monomer"}}}
{"molecule": "TTTTATATCATTTAATTCATATGTCTTTTCTTTCTTCTTCGCCTTCAGATCATAAGGATCTTGGACCTTTTTTCTTTCCTTCTTTTCAGAACACAAAGATGTACAACTAAAAGCATTGTCTGTATATGTTGAACGATTACTCTTGAAGGATCCCG (double strand) [AT-rich PfgyrA DNA]", "values": [{"measurement": "binding", "setting": "[1]", "result": "binds"}, {"measurement": "binding", "setting": "[2]", "result": "binds"}]}
{"molecule": "Recombinant PfARO (P. falciparum Armadillo Repeats Only protein), full length, C-terminal 6-His tag (natural protein, P. falciparum (strain 3D7), UniProt C0H4A5 1-275, looked up, PfARO, Plasmodium falciparum strain 3D7, PlasmoDB PF3D7_0414900; full length open reading frame of 275 amino acids amplified from 3D7 cDNA; putative NES at residues 198-204 (LVNLLEL); nine cysteines; Cloned NdeI/XhoI into pET-24b; also called rPfARO; ARM Repeats Only; source: E. coli BL21 (DE3) Codon+, purified (Ni-NTA, size exclusion chromatography on Superdex-200); not shown: His6, C-terminal, …) MGNNCCAGRDLLYKNKLQEFGIEGSKTIRKLLSFTSNDILRFDKAYDENDVQEFVNLCSSTCEIEKLEDRMHPWAADPKTIGALSATQLAILASKENEPHYKDAIREANGIAVFINLLKSHELDRVHAAVVALSFLSVDNVKNCICMFESGALPYLISGMKSNIDGMKAACAQTCRNIFVLDKKYKKEFLKLGGITQLVNLLELPSNYDDSQPLYTQLEAIYHLEDFILNDGDEIPEFLEAVKNSNSIKNLKTLQQCPEQDLAEASNVLLLRLTD", "values": [{"measurement": "stoichiometry N", "setting": "[3]", "result": 2}]}
{"molecule": "Native PfARO parasite protein (natural protein, UniProt C0H4A5 1-275, looked up, PfARO, Plasmodium falciparum strain 3D7, PlasmoDB PF3D7_0414900; native protein detected at ~32 kDa; source: endogenous, P. falciparum 3D7 schizont-stage parasite lysate (detergent based)) MGNNCCAGRDLLYKNKLQEFGIEGSKTIRKLLSFTSNDILRFDKAYDENDVQEFVNLCSSTCEIEKLEDRMHPWAADPKTIGALSATQLAILASKENEPHYKDAIREANGIAVFINLLKSHELDRVHAAVVALSFLSVDNVKNCICMFESGALPYLISGMKSNIDGMKAACAQTCRNIFVLDKKYKKEFLKLGGITQLVNLLELPSNYDDSQPLYTQLEAIYHLEDFILNDGDEIPEFLEAVKNSNSIKNLKTLQQCPEQDLAEASNVLLLRLTD", "values": [{"measurement": "stoichiometry N", "setting": "[4]", "result": 2}]}
